Experimental findings from the Immune Epitope Database (IEDB) are described below.

Among the targets are HLA-A*02:06; HLA-A*68:02; HLA-A*02:03; HLA-A*02:01; HLA-A*02:17; HLA-B*08:01; HLA-A*11:01; HLA-B*54:01; HLA-B*53:01; HLA-B*51:01; HLA-A*68:01; HLA-A*31:01; HLA-A*02:02; HLA-A*33:01; HLA-A*01:01; HLA-B*07:02; HLA-A*03:01; HLA-B*35:01.
Assay in all cases: IEDB peptide-MHC binding, purified MHC/competitive/radioactivity; filed as Kd, often an IC50 or EC50 that approximates it; ≥ and ≤ were set here for values at or beyond the usual limits of such assays
The next test concerns the target HLA-B*15:01. Particulars: source organism: Dengue virus 3 Sri Lanka/1266/2000.
Another test deals with HLA-A*29:02. Particulars: source organism: Lassa virus Josiah.
The target in a further test is HLA-A*30:01. Particulars: source organism: Lassa virus Josiah.
A further test has as its target HLA-A*32:01. To be noted: source organism: Lassa virus Josiah.
In a further test the target is HLA-A*30:02. To be noted: source organism: Lassa virus Josiah.
The target in a further test is HLA-A*26:01. To be noted: source organism: Lassa virus Josiah.
Where [1] appears, read: source organism: Dengue virus 1 Brazil/97-11/1997.
Setting [2] is: source organism: Dengue virus 1 Singapore/S275/1990.
Where [3] appears, read: source organism: Dengue virus 3 Sri Lanka/1266/2000.
Where [4] appears, read: source organism: Dengue virus 2 Jamaica/1409/1983.
Setting [5] is: source organism: Dengue virus 4 Philippines/H241/1956.
The mark [6] stands for this setting: source organism: Hepacivirus hominis.
The mark [7] stands for this setting: source organism: Trypanosoma cruzi.
[8] abbreviates: source organism: Vaccinia virus WR.
Setting [9] is: source organism: Lassa virus Josiah.

With QVFGTAYGV, the values for the Kd with HLA-A*02:06 (setting [1]) and with HLA-A*68:02 (setting [1]) were 7.26 nM and 0.95 nM, respectively.
In the case of IIFILLMLV, the Kd with HLA-A*02:06 (setting [1]) was found to be 1170 nM; with HLA-A*02:03 (setting [1]), 217 nM; in the test with HLA-A*02:01 (setting [2]), 43.7 nM; with HLA-A*02:17 (setting [2]), 328 nM.
For the sequence CLMMILPAAL, the Kd was found to be 39 nM in the test with HLA-A*02:03 (setting [3]), 15.4 nM in the test with HLA-A*02:01 (setting [3]) and 170 nM with HLA-A*02:17 (setting [3]).
As for ILIGVIITWI, the Kd is 91.5 nM in the test with HLA-A*02:01 (setting [4]) and 17600 nM with HLA-A*02:17 (setting [4]).
Turning to VLWEGGHDL, the values for the Kd with HLA-A*02:01 (setting [5]) and with HLA-A*02:17 (setting [5]) were 14.3 nM and 453 nM, respectively.
With YQLWTALVSL, the Kd with HLA-A*02:06 (setting [3]) worked out at 5.87 nM; with HLA-B*08:01 (setting [3]), 974 nM; with HLA-B*15:01, 191 nM; in the test with HLA-A*02:17 (source organism: Dengue virus 3 China/80-2/1980) it was 91.4 nM.
With HSKRKCDEL, the Kd with HLA-A*02:06 (setting [6]) was 1150 nM; with HLA-A*11:01 (setting [6]), at least 77900 nM; with HLA-B*54:01 (setting [6]), at least 36100 nM; with HLA-B*53:01 (setting [6]), at least 30100 nM; in the test with HLA-B*08:01 (setting [6]), at least 77600 nM; with HLA-B*51:01 (setting [6]), at least 46500 nM. For the same sequence, the Kd with HLA-A*68:01 (setting [6]) is at least 77700 nM; with HLA-A*31:01 (setting [6]) it was at least 77900 nM; in the test with HLA-A*02:02 (setting [6]), at least 43400 nM; in the test with HLA-A*68:02 (setting [6]) it was at least 69800 nM; in the test with HLA-A*33:01 (setting [6]), at least 77700 nM; with HLA-A*02:03 (setting [6]), 12400 nM. Moreover, the Kd with HLA-A*01:01 (setting [6]) was at least 59800 nM; in the test with HLA-A*02:01 (setting [6]), at least 33900 nM; in the test with HLA-B*07:02 (setting [6]), at least 59800 nM; in the test with HLA-A*03:01 (setting [6]), at least 78000 nM; with HLA-B*35:01 (setting [6]), at least 77400 nM.
For WMTTEDMLAV, the Kd in the test with HLA-A*02:06 (setting [4]) stood at 25.1 nM; in the test with HLA-A*02:03 (setting [4]) it was 20.4 nM; with HLA-A*02:01 (setting [4]) it was 82.4 nM; with HLA-A*02:17 (setting [4]) it was 2510 nM.
Take TVAANEMGL: in the test with HLA-A*68:02 (setting [1]), the Kd amounted to 66.8 nM.
For the sequence LLGLWGFAAL, the Kd is 466 nM with HLA-A*02:06 (setting [7]); 28.2 nM with HLA-A*02:02 (setting [7]); at least 125000 nM in the test with HLA-A*68:02 (setting [7]); 36 nM with HLA-A*02:03 (setting [7]); 222 nM with HLA-A*02:01 (setting [7]).
As for LLILCVTQV, the Kd is 7.56 nM in the test with HLA-A*02:03 (setting [4]), 27.2 nM with HLA-A*02:01 (setting [4]) and 5970 nM with HLA-A*02:17 (setting [4]).
Take IVLFQRFLR: the Kd in the test with HLA-A*02:06 (setting [8]) was at least 47700 nM; in the test with HLA-A*11:01 (setting [8]), 13.4 nM; with HLA-B*54:01 (setting [8]), at least 78100 nM; with HLA-B*53:01 (setting [8]) it was at least 78200 nM; with HLA-B*51:01 (setting [8]), at least 77500 nM; in the test with HLA-A*68:01 (setting [8]), 1.24 nM. For the same sequence, the Kd with HLA-A*31:01 (setting [8]) was 0.185 nM; in the test with HLA-A*02:02 (setting [8]) it was at least 54200 nM; with HLA-A*68:02 (setting [8]), at least 51900 nM; in the test with HLA-A*33:01 (setting [8]), 2.38 nM; with HLA-A*02:03 (setting [8]), at least 48100 nM; with HLA-A*02:01 (setting [8]) it was at least 78100 nM. For the same sequence, the Kd with HLA-B*07:02 (setting [8]) was at least 77500 nM; in the test with HLA-A*03:01 (setting [8]) it was 242 nM; in the test with HLA-B*35:01 (setting [8]) it was at least 21900 nM.
Consider YLALLAAFKV, for which the Kd with HLA-A*02:06 (setting [4]) is 9.62 nM; in the test with HLA-A*02:03 (setting [4]), 15 nM; with HLA-A*02:01 (setting [4]), 1.62 nM; with HLA-A*02:17 (setting [4]) it was 62.3 nM.
Consider LISIFLHLV, for which the dissociation constant Kd with HLA-A*29:02 amounted to 11800 nM; in the test with HLA-A*02:06 (setting [9]), 80.4 nM; with HLA-A*30:01 it was 1170 nM; with HLA-A*32:01 it was 6700 nM; with HLA-A*30:02, 9090 nM; with HLA-A*02:02 (setting [9]), 11.1 nM. Moreover, the Kd with HLA-A*68:02 (setting [9]) was found to be 65.2 nM; in the test with HLA-A*02:03 (setting [9]), 20.8 nM; in the test with HLA-A*01:01 (setting [9]), 1910 nM; in the test with HLA-A*02:01 (setting [9]), 47.2 nM; in the test with HLA-A*26:01 it was 10300 nM.
As for FLHKRFTLV, the equilibrium dissociation constant (Kd) in the test with HLA-A*02:06 (setting [7]) amounted to 1.37 nM; with HLA-A*02:02 (setting [7]), 0.256 nM; in the test with HLA-A*68:02 (setting [7]), 1310 nM; in the test with HLA-A*02:03 (setting [7]), 0.116 nM; with HLA-A*02:01 (setting [7]), 0.614 nM.
On to GMFRTVGQL, for which, in the test with HLA-A*68:02 (source organism: Homo sapiens), the Kd is at least 60000 nM.
Turning to YVSAIAQAKA, the dissociation constant (Kd) with HLA-A*68:02 (setting [1]) was found to be 22 nM.
For the sequence MVSILASSL, the Kd in the test with HLA-A*68:02 (setting [4]) was found to be 134 nM; with HLA-B*07:02 (setting [4]), 1010 nM.
As for TLIASLVMLL, the Kd turned out to be 28.6 nM in the test with HLA-A*02:03 (setting [5]), 49.4 nM with HLA-A*02:01 (setting [5]) and 57.9 nM with HLA-A*02:17 (setting [5]).
For the sequence FLMVLLIPEP, the results for the Kd with HLA-A*02:01 (setting [5]) and with HLA-A*02:17 (setting [5]) were 31.4 nM and at least 44700 nM, respectively.
LAIPPTAGV: the Kd with HLA-A*68:02 (source organism: Dengue virus 3 Martinique/1243/1999) came to 3.16 nM.
For LMMILPAALA, the Kd was found to be 98.8 nM in the test with HLA-A*02:03 (setting [3]), 11 nM in the test with HLA-A*02:01 (setting [3]) and 1840 nM in the test with HLA-A*02:17 (setting [3]).
In the case of DLYEEEMREL, in the test with HLA-A*68:02 (source organism: Homo sapiens), the Kd is 13500 nM.

As usually defined, the Kd is the free concentration of one partner at which half of the binding sites on the other are occupied at equilibrium, for simple one-to-one binding.
